Laboratory results from paper PMC5001606.

Assays:
Experiment in all cases: MST
HiNmlR C54A = target: T1, HiNmlR C54A (Haemophilus influenzae Rd KW20, UniProt P44558 1-135, C54A)
T1 sequence: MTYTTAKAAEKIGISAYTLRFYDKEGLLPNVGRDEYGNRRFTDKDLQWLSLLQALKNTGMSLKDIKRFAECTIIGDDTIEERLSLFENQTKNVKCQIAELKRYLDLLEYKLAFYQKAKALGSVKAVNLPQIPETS

HiNmlR C54A/C95A = target: T2, HiNmlR C54A/C95A (Haemophilus influenzae Rd KW20, UniProt P44558 1-135, C54A;C95A)
T2 sequence: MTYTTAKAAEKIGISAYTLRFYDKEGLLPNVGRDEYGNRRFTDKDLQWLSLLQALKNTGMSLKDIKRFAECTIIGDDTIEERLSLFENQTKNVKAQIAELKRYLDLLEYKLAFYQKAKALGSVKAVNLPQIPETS

HiNmlR wild-type = target: T3, HiNmlR wild-type (Haemophilus influenzae Rd KW20, UniProt P44558 1-135)
T3 sequence: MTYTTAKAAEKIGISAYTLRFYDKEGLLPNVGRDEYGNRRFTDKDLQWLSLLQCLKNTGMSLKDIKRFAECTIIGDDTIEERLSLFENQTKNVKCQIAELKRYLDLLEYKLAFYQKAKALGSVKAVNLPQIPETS

HiNmlR C54A/C71A/C95A = target: T4, HiNmlR C54A/C71A/C95A (Haemophilus influenzae Rd KW20, UniProt P44558 1-135, C54A;C71A;C95A)
T4 sequence: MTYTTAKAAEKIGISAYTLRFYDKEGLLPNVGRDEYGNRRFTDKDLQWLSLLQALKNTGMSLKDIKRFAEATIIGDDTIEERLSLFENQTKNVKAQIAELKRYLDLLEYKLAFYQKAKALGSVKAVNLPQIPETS

HiNmlR C71A/C95A = target: T5, HiNmlR C71A/C95A (Haemophilus influenzae Rd KW20, UniProt P44558 1-135, C71A;C95A)
T5 sequence: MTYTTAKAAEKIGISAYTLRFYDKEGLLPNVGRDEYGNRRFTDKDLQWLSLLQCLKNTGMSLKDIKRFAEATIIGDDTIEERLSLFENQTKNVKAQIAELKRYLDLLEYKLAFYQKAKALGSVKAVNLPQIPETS

B1: PadhC-estD/nmlR IR wt 24-bp (dsDNA)
DNA 1: CACTTTAGAGTTCACTCTAAAGCA
DNA 2: TGCTTTAGAGTGAACTCTAAAGTG
Q: What does the source list for B1?
A: Kd (HiNmlR C54A): 91.1 ± 15.6 nM; Kd (HiNmlR C54A/C95A): 47.4 ± 6.7 nM; Kd (HiNmlR wild-type): 25.2 ± 2.3 nM; Kd (HiNmlR C54A/C71A/C95A): 55.3 ± 5.3 nM; Kd (HiNmlR C71A/C95A): 33 ± 3.4 nM

B2: G5'C 24-bp (dsDNA)
DNA 1: CACTTTACAGTTCACTCTAAAGCA
DNA 2: TGCTTTAGAGTGAACTGTAAAGTG
Q: With B2 as the binder, how does the Kd (HiNmlR wild-type) read?
A: 245 ± 26.1 nM

B3: C5G 24-bp (dsDNA)
DNA 1: CACTTTAGAGTTCACTGTAAAGCA
DNA 2: TGCTTTACAGTGAACTCTAAAGTG
Q: How did the Kd (HiNmlR wild-type) turn out when B3 was run?
A: 252 ± 17.4 nM

B4: G5'C/C5G 24-bp (dsDNA)
DNA 1: CACTTTACAGTTCACTGTAAAGCA
DNA 2: TGCTTTACAGTGAACTGTAAAGTG
Q: With B4 as the binder, how does the Kd (HiNmlR wild-type) read?
A: 4690 ± 311 nM
